B1: UGT76G1var7: UGT76G1 variant, mutations F22L_I43V_A239V (protein, UniProt Q6VAB4 1-458, looked up, variant F22L I43V A239V)
UDP-glycosyltransferase 76G1: MENKTETTVRRRRRIILFPVPLQGHINPILQLANVLYSKGFSVTIFHTNFNKPKTSNYPHFTFRFILDNDPQDERISNLPTHGPLAGMRIPIINEHGADELRRELELLMLASEEDEEVSCLITDALWYFAQSVADSLNLRRLVLMTSSLFNFHAHVSLPQFDELGYLDPDDKTRLEEQASGFPMLKVKDIKSAYSNWQILKEILGKMIKQTKASSGVIWNSFKELEESELETVIREIPVPSFLIPLPKHLTASSSSLLDHDRTVFQWLDQQPPSSVLYVSFGSTSEVDEKDFLEIARGLVDSKQSFLWVVRPGFVKGSTWVEPLPDGFLGERGRIVKWVPQQEVLAHGAIGAFWTHSGWNSTLESVCEGVPMIFSDFGLDQPLNARYMSDVLKVGVYLENGWERGEIANAIRRVMVDEEGEYIRQNARVLKQKADVSLMKGGSSYESLESLVSYISSL
B2: UGT76G1var13: UGT76G1 variant, mutations L243A_S357C_A385T (protein, UniProt Q6VAB4 1-458, looked up, variant L243A S357C A385T)
UDP-glycosyltransferase 76G1: MENKTETTVRRRRRIILFPVPFQGHINPILQLANVLYSKGFSITIFHTNFNKPKTSNYPHFTFRFILDNDPQDERISNLPTHGPLAGMRIPIINEHGADELRRELELLMLASEEDEEVSCLITDALWYFAQSVADSLNLRRLVLMTSSLFNFHAHVSLPQFDELGYLDPDDKTRLEEQASGFPMLKVKDIKSAYSNWQILKEILGKMIKQTKASSGVIWNSFKELEESELETVIREIPAPSFAIPLPKHLTASSSSLLDHDRTVFQWLDQQPPSSVLYVSFGSTSEVDEKDFLEIARGLVDSKQSFLWVVRPGFVKGSTWVEPLPDGFLGERGRIVKWVPQQEVLAHGAIGAFWTHCGWNSTLESVCEGVPMIFSDFGLDQPLNTRYMSDVLKVGVYLENGWERGEIANAIRRVMVDEEGEYIRQNARVLKQKADVSLMKGGSSYESLESLVSYISSL
B3: UGT76G1var9: UGT76G1 variant, mutations E231A_D301N_G348P (protein, UniProt Q6VAB4 1-458, looked up, variant E231A D301N G348P)
UDP-glycosyltransferase 76G1: MENKTETTVRRRRRIILFPVPFQGHINPILQLANVLYSKGFSITIFHTNFNKPKTSNYPHFTFRFILDNDPQDERISNLPTHGPLAGMRIPIINEHGADELRRELELLMLASEEDEEVSCLITDALWYFAQSVADSLNLRRLVLMTSSLFNFHAHVSLPQFDELGYLDPDDKTRLEEQASGFPMLKVKDIKSAYSNWQILKEILGKMIKQTKASSGVIWNSFKELEESELATVIREIPAPSFLIPLPKHLTASSSSLLDHDRTVFQWLDQQPPSSVLYVSFGSTSEVDEKDFLEIARGLVNSKQSFLWVVRPGFVKGSTWVEPLPDGFLGERGRIVKWVPQQEVLAHPAIGAFWTHSGWNSTLESVCEGVPMIFSDFGLDQPLNARYMSDVLKVGVYLENGWERGEIANAIRRVMVDEEGEYIRQNARVLKQKADVSLMKGGSSYESLESLVSYISSL
B4: UGT76G1var10: UGT76G1 variant, mutations A33G_L246F_Q342E (protein, UniProt Q6VAB4 1-458, looked up, variant A33G L246F Q342E)
UDP-glycosyltransferase 76G1: MENKTETTVRRRRRIILFPVPFQGHINPILQLGNVLYSKGFSITIFHTNFNKPKTSNYPHFTFRFILDNDPQDERISNLPTHGPLAGMRIPIINEHGADELRRELELLMLASEEDEEVSCLITDALWYFAQSVADSLNLRRLVLMTSSLFNFHAHVSLPQFDELGYLDPDDKTRLEEQASGFPMLKVKDIKSAYSNWQILKEILGKMIKQTKASSGVIWNSFKELEESELETVIREIPAPSFLIPFPKHLTASSSSLLDHDRTVFQWLDQQPPSSVLYVSFGSTSEVDEKDFLEIARGLVDSKQSFLWVVRPGFVKGSTWVEPLPDGFLGERGRIVKWVPQEEVLAHGAIGAFWTHSGWNSTLESVCEGVPMIFSDFGLDQPLNARYMSDVLKVGVYLENGWERGEIANAIRRVMVDEEGEYIRQNARVLKQKADVSLMKGGSSYESLESLVSYISSL
B5: UGT76G1var14: UGT76G1 variant, mutations A239I_F265I_V396F (protein, UniProt Q6VAB4 1-458, looked up, variant A239I F265I V396F)
UDP-glycosyltransferase 76G1: MENKTETTVRRRRRIILFPVPFQGHINPILQLANVLYSKGFSITIFHTNFNKPKTSNYPHFTFRFILDNDPQDERISNLPTHGPLAGMRIPIINEHGADELRRELELLMLASEEDEEVSCLITDALWYFAQSVADSLNLRRLVLMTSSLFNFHAHVSLPQFDELGYLDPDDKTRLEEQASGFPMLKVKDIKSAYSNWQILKEILGKMIKQTKASSGVIWNSFKELEESELETVIREIPIPSFLIPLPKHLTASSSSLLDHDRTVIQWLDQQPPSSVLYVSFGSTSEVDEKDFLEIARGLVDSKQSFLWVVRPGFVKGSTWVEPLPDGFLGERGRIVKWVPQQEVLAHGAIGAFWTHSGWNSTLESVCEGVPMIFSDFGLDQPLNARYMSDVLKVGFYLENGWERGEIANAIRRVMVDEEGEYIRQNARVLKQKADVSLMKGGSSYESLESLVSYISSL
B6: UGT76G1var16: UGT76G1 variant, mutations F265I_P272A_I335V (protein, UniProt Q6VAB4 1-458, looked up, variant F265I P272A I335V)
UDP-glycosyltransferase 76G1: MENKTETTVRRRRRIILFPVPFQGHINPILQLANVLYSKGFSITIFHTNFNKPKTSNYPHFTFRFILDNDPQDERISNLPTHGPLAGMRIPIINEHGADELRRELELLMLASEEDEEVSCLITDALWYFAQSVADSLNLRRLVLMTSSLFNFHAHVSLPQFDELGYLDPDDKTRLEEQASGFPMLKVKDIKSAYSNWQILKEILGKMIKQTKASSGVIWNSFKELEESELETVIREIPAPSFLIPLPKHLTASSSSLLDHDRTVIQWLDQQAPSSVLYVSFGSTSEVDEKDFLEIARGLVDSKQSFLWVVRPGFVKGSTWVEPLPDGFLGERGRVVKWVPQQEVLAHGAIGAFWTHSGWNSTLESVCEGVPMIFSDFGLDQPLNARYMSDVLKVGVYLENGWERGEIANAIRRVMVDEEGEYIRQNARVLKQKADVSLMKGGSSYESLESLVSYISSL
B7: UGT76G1var11: UGT76G1 variant, mutations F22L_A33G_V310I (protein, UniProt Q6VAB4 1-458, looked up, variant F22L A33G V310I)
UDP-glycosyltransferase 76G1: MENKTETTVRRRRRIILFPVPLQGHINPILQLGNVLYSKGFSITIFHTNFNKPKTSNYPHFTFRFILDNDPQDERISNLPTHGPLAGMRIPIINEHGADELRRELELLMLASEEDEEVSCLITDALWYFAQSVADSLNLRRLVLMTSSLFNFHAHVSLPQFDELGYLDPDDKTRLEEQASGFPMLKVKDIKSAYSNWQILKEILGKMIKQTKASSGVIWNSFKELEESELETVIREIPAPSFLIPLPKHLTASSSSLLDHDRTVFQWLDQQPPSSVLYVSFGSTSEVDEKDFLEIARGLVDSKQSFLWVIRPGFVKGSTWVEPLPDGFLGERGRIVKWVPQQEVLAHGAIGAFWTHSGWNSTLESVCEGVPMIFSDFGLDQPLNARYMSDVLKVGVYLENGWERGEIANAIRRVMVDEEGEYIRQNARVLKQKADVSLMKGGSSYESLESLVSYISSL
B8: UGT76G1var12: UGT76G1 variant, mutations L243P_K303G_A352G (protein, UniProt Q6VAB4 1-458, looked up, variant L243P K303G A352G)
UDP-glycosyltransferase 76G1: MENKTETTVRRRRRIILFPVPFQGHINPILQLANVLYSKGFSITIFHTNFNKPKTSNYPHFTFRFILDNDPQDERISNLPTHGPLAGMRIPIINEHGADELRRELELLMLASEEDEEVSCLITDALWYFAQSVADSLNLRRLVLMTSSLFNFHAHVSLPQFDELGYLDPDDKTRLEEQASGFPMLKVKDIKSAYSNWQILKEILGKMIKQTKASSGVIWNSFKELEESELETVIREIPAPSFPIPLPKHLTASSSSLLDHDRTVFQWLDQQPPSSVLYVSFGSTSEVDEKDFLEIARGLVDSGQSFLWVVRPGFVKGSTWVEPLPDGFLGERGRIVKWVPQQEVLAHGAIGGFWTHSGWNSTLESVCEGVPMIFSDFGLDQPLNARYMSDVLKVGVYLENGWERGEIANAIRRVMVDEEGEYIRQNARVLKQKADVSLMKGGSSYESLESLVSYISSL
B9: UGT76G1var8: UGT76G1 variant, mutations E224A_Q266S_Q342E (protein, UniProt Q6VAB4 1-458, looked up, variant E224A Q266S Q342E)
UDP-glycosyltransferase 76G1: MENKTETTVRRRRRIILFPVPFQGHINPILQLANVLYSKGFSITIFHTNFNKPKTSNYPHFTFRFILDNDPQDERISNLPTHGPLAGMRIPIINEHGADELRRELELLMLASEEDEEVSCLITDALWYFAQSVADSLNLRRLVLMTSSLFNFHAHVSLPQFDELGYLDPDDKTRLEEQASGFPMLKVKDIKSAYSNWQILKEILGKMIKQTKASSGVIWNSFKALEESELETVIREIPAPSFLIPLPKHLTASSSSLLDHDRTVFSWLDQQPPSSVLYVSFGSTSEVDEKDFLEIARGLVDSKQSFLWVVRPGFVKGSTWVEPLPDGFLGERGRIVKWVPQEEVLAHGAIGAFWTHSGWNSTLESVCEGVPMIFSDFGLDQPLNARYMSDVLKVGVYLENGWERGEIANAIRRVMVDEEGEYIRQNARVLKQKADVSLMKGGSSYESLESLVSYISSL
B10: UGT76G1var15: UGT76G1 variant, mutations F41L_L246F_Q425E (protein, UniProt Q6VAB4 1-458, looked up, variant F41L L246F Q425E)
UDP-glycosyltransferase 76G1: MENKTETTVRRRRRIILFPVPFQGHINPILQLANVLYSKGLSITIFHTNFNKPKTSNYPHFTFRFILDNDPQDERISNLPTHGPLAGMRIPIINEHGADELRRELELLMLASEEDEEVSCLITDALWYFAQSVADSLNLRRLVLMTSSLFNFHAHVSLPQFDELGYLDPDDKTRLEEQASGFPMLKVKDIKSAYSNWQILKEILGKMIKQTKASSGVIWNSFKELEESELETVIREIPAPSFLIPFPKHLTASSSSLLDHDRTVFQWLDQQPPSSVLYVSFGSTSEVDEKDFLEIARGLVDSKQSFLWVVRPGFVKGSTWVEPLPDGFLGERGRIVKWVPQQEVLAHGAIGAFWTHSGWNSTLESVCEGVPMIFSDFGLDQPLNARYMSDVLKVGVYLENGWERGEIANAIRRVMVDEEGEYIRENARVLKQKADVSLMKGGSSYESLESLVSYISSL

assay: Directed evolution of UGT76G1, Rebaudioside D to Rebaudioside M, round 1 (Example 26); assay type: biochemical; conditions: 100 μL fresh lysate, 0.5 mM Rebaudioside D, 30° C., pH 7.2
Method: Lysis was performed by addition of Bugbuster® Master mix (Novagen®) to the thawed cells and the lysate was recovered by centrifugation. Activity tests were performed with 100 μL of fresh lysate that was added to a solution of Rebaudioside D (final concentration 0.5 mM), MgCl2 (final concentration 3 mM) and UDP-Glucose (final concentration 2.5 mM) in 50 mM phosphate buffer pH 7.2.
The reaction was allowed to run at 30° C. and samples were taken after 2, 4, 7 and 24 h. to determine conversion and initial rate by HPLC (CAD detection) using the analytical method that was described above for the transformation of Rebaudioside D to Rebaudioside M. The results are depicted in the following table.

Question: Which results are given for B1?
Answer: conversion Reb D to Reb M after 24 h: 0.2%; initial rate: −6.0E+04 Reb M area/min

Question: For B2, which “conversion Reb D to Reb M after 24 h” value is on record?
Answer: Its value is 0.2%.

Question: What about the initial rate of the same molecule?
Answer: Its initial rate is −3.3E+04 Reb M area/min.

Question: With B3 as the molecule, how does the “conversion Reb D to Reb M after 24 h” value read?
Answer: The value was 52.0%.

Question: And the initial rate?
Answer: Its initial rate is 4.9E+07 Reb M area/min.

Question: Which “conversion Reb D to Reb M after 24 h” value does the source give for B4 here?
Answer: The value was 0.3%.

Question: What about the initial rate of the same molecule?
Answer: The initial rate was −7.7E+02 Reb M area/min.

Question: With B5 as the molecule, how does the “conversion Reb D to Reb M after 24 h” value read?
Answer: The value was 5.3%.

Question: What about the initial rate of the same molecule?
Answer: Its initial rate is 1.5E+06 Reb M area/min.

Question: Which initial rate does the source give for B6 here?
Answer: Its initial rate is 5.8E+06 Reb M area/min.

Question: With B7 as the molecule, how does the “conversion Reb D to Reb M after 24 h” value read?
Answer: The value was 0.4%.

Question: And the initial rate?
Answer: The initial rate was 3.8E+04 Reb M area/min.

Question: For B8, which “conversion Reb D to Reb M after 24 h” value is on record?
Answer: The value was 0.5%.

Question: And the initial rate?
Answer: Its initial rate is 8.7E+04 Reb M area/min.

Question: For B9, which “conversion Reb D to Reb M after 24 h” value is on record?
Answer: The value was 0.5%.

Question: What about the initial rate of the same molecule?
Answer: The initial rate was 2.3E+04 Reb M area/min.

Question: What does the source list for B10?
Answer: conversion Reb D to Reb M after 24 h: 5.6%; initial rate: 1.5E+06 Reb M area/min
